{"source": "patent US20190144884A1", "about": "(University of Pennsylvania, published 2019)", "proteins": {"B1": {"name": "human butyrylcholinesterase (hBChE) expressed from AAV8.UbC.hIL2.BChE C1.IRES.PRIMA1.SV40 vector (enzyme)", "chain": "HTEDDIIIATKNGKVRGMNLTVFGGTVTAFLGIPYAQPPLGRLRFKKPQSLTKWSDIWNATKYANSCCQNIDQSFPGFHGSEMWNPNTDLSEDCLYLNVWIPAPKPKNATVLIWIYGGGFQTGTSSLHVYDGKFLARVERVIVVSMNYRVGALGFLALPGNPEAPGNMGLFDQQLALQWVQKNIAAFGGNPKSVTLFGESAGAASVSLHLLSPGSHSLFTRAILQSGSFNAPWAVTSLYEARNRTLNLAKLTGCSRENETEIIKCLRNKDPQEILLNEAFVVPYGTPLSVNFGPTVDGDFLTDMPDILLELGQFKKTQILVGVNKDEGTAFLVYGAPGFSKDNNSIITRKEFQEGLKIFFPGVSEFGKESILFHYTDWVDDQRPENYREALGDVVGDYNFICPALEFTKKFSEWGNNAFFYYFEHRSSKLPWPEWMGVMHGYEIEFVFGLPLERRDNYTKAEEILSRSIVKRWANFAKYGNPNETQNNSTSWPVFKSTEQKYLTLNTESTRIMTKLRAQQCRFWTSFFPKVLEMTGNIDEAEWEWKAGFHRWNNYMMDWKNQFNDYTSKKESCVGL", "notes": "Secreted into the serum of vector-injected RAG KO mice; also called hBuChE; Hu BChE"}}, "target": "the molecule itself", "experiment": "native gel, in-gel butyrylcholinesterase activity staining of mouse serum (self-association: dimer, tetramer)"}
{"protein": "B1", "values": [{"measurement": "binding result", "value": "binds"}]}
